Results taken from PMC6007033.

How the values were obtained:
[1] = biological target: BG505.T332N.SOSIP.664.113C.429GCG gp140 trimer (HIV-1 BG505); experiment: SPR
[2] = biological target: BG505.T332N.SOSIP.664.113C.431GCG gp140 trimer (HIV-1 BG505); experiment: SPR

Substance: two-domain soluble CD4 (receptor)
- reduction in binding affinity against the unmutated trimer [1]: 3 log
- reduction in binding affinity against the unmutated trimer [2]: 3 log
